The source of these data is article PMC3276066.

This assay addresses Encephalitozoon cuniculi TATA box binding protein, full length (Encephalitozoon cuniculi).

With “Encephalitozoon cuniculi Mot1 N-terminal domain (HEAT domain, residues 1–779) (domain or fragment)”, the stoichiometry N (in general, the number of molecules, sites or subunits per partner or assembly) was 1 Mot1:TBP.
